Assay results published in patent US20180155451A1 (published 2018).
Residue numbers refer to the chain shown, from its start. Names and notes keep the numbering of the source. Like-named read-outs stand apart in the source and are kept apart here. One block for each binder: values may come before it.

Columns and labels:
[1] = biological target: T1, FcγRIIIa extracellular domain with C-terminal His tag (human, UniProt P08637 17-208); assay: SPR (Biacore), ratio of KD values for FcγRIIIa
T1 construct: extracellular domain; also called FcgRIIIa; CD16A
Text: GpH7-A57 (SEQ ID NO: 40) resulting from the introduction of all of S239D, A330L, and I332E into GpH7-A5; GpH7-B78 (SEQ ID NO: 41) resulting from the introduction of all of S239D, A330L, and I332E into GpH7-B3; GpH7-TA7 (SEQ ID NO: 31) resulting from the introduction of all of L234Y, G236W, and S298A into GpH7-A5; and GpH7-TA45 (SEQ ID NO: 32) resulting from the introduction of all of L234Y, G236W, and S298A into GpH7-B3. […] The prepared antibodies were compared for the FcγRIIIa-binding activity using, as an indicator, KD for FcγRIIIa that was determined according to the method described in Reference Example 2.
(§1) Analysis of interaction between objective antibody and the FcγR was carried out using Biacore T100 (GE Healthcare). HBS-EP+ (GE Healthcare) was used as the running buffer, and the measurement temperature was set to 25° C. Chips produced by immobilizing the antigen peptide by the amine coupling method to a Series S Sencor Chip CM5 (GE Healthcare), or alternatively, chips produced by allowing preliminarily biotinylated antigen peptides to interact with and immobilize onto a Series S Sensor Chip SA (certified) (GE Healthcare) were used. Antibodies of interest were captured onto an antigen peptide-immobilized chip, and allowed to interact to each FcγR diluted with running buffer. To regenerate and repeatedly use the chip, the antibodies captured on the chip were washed off by reacting 10 mM glycine-HCl, pH 1.5.

[2] = biological target: T1, FcγRIIIa extracellular domain with …; assay: SPR (Biacore), antibody captured, FcγRIIIa as analyte, 1:1 Langmuir kinetic fit
Protocol: The prepared antibodies were compared for the FcγRIIIa-binding activity using, as an indicator, KD for FcγRIIIa that was determined according to the method described in Reference Example 2.
as §1
The FcγR-binding activity of each antibody was assessed primarily using as an indicator the FcγR-binding activity and dissociation constant for FcγR.

[3] = biological target: T1, FcγRIIIa extracellular domain with …; assay: SPR (Biacore), antibody captured on antigen peptide chip, FcγR as analyte
Protocol: Specifically, GpH7-TA7 and GpH7-TA45 (SEQ ID NO: 32) resulting from the introduction of L234Y, G236W, and S298A into GpH7-A5 and GpH7-B3, respectively, were prepared according to the method described in Reference Example 1. […] These antibodies were compared for the FcγRIIIa binding according to the method described in Reference Example 2 (Table 10).
as §1

[4] = biological target: T1, FcγRIIIa extracellular domain with …; assay: as above; remark: listed apart in the source
Protocol: GpH7-TA8 (SEQ ID NO: 33) and GpH7-B12 (SEQ ID NO: 12) resulting from the introduction of P329R into GpH7-TA7 and GpH7-B3, respectively, were prepared according to the method described in Reference Example 1.
as §1

FcgRIIIa F [5] = biological target: T2, FcgRIIIa F (human, UniProt P08637 17-208); assay: SPR (Biacore), antibody captured on chip, FcgR extracellular domain as analyte
T2 construct: extracellular domain; also called FcγRIIIa F; not shown: His tag attached to the C terminus
Protocol: (§2) Analysis of interaction between obj ective antibody and the FcγR was carried out using Biacore T100 (GE Healthcare), Biacore T200, Biacore A100, and Biacore 4000. HBS-EP+ (GE Healthcare) was used as the running buffer, and the measurement temperature was set to 25° C. Chips produced by immobilizing the antigen peptide by the amine coupling method to a Series S sensor Chip CM5 (GE Healthcare), chips produced by allowing preliminarily biotinylated antigen peptides to interact with and immobilize onto a Series S Sensor Chip SA (certified) (GE Healthcare), chips produced by immobilizing Protein L (ACTIGEN, BioVision) to Series S Sencor Chip CM5 (GE Healthcare), or chips produced by immobilizing Protein A/G (Thermo Scientific) to Series S Sencor Chip CM5 (GE Healthcare) were used. Antibodies of interest were captured onto these chips, and allowed to interact to each FcγR diluted with running buffer. To regenerate and repeatedly use the chip, the antibodies captured onto the chip were washed off by reacting 10 mM glycine-HCl, pH 1.5.

FcgRIIIa V [6] = biological target: T3, FcgRIIIa V (human, UniProt P08637 17-208); assay: as above
T3 construct: extracellular domain; also called FcγRIIIa V; not shown: His tag attached to the C terminus
Protocol: as §2

FcgRIIb [7] = biological target: T4, FcgRIIb (human, UniProt P31994 43-217); assay: as above
T4 construct: extracellular domain; Expressed in FreeStyle293 cells and purified; used as analyte in Biacore; also called FcγRIIb; CD32B; not shown: His tag attached to the C terminus
T4 sequence (looked up): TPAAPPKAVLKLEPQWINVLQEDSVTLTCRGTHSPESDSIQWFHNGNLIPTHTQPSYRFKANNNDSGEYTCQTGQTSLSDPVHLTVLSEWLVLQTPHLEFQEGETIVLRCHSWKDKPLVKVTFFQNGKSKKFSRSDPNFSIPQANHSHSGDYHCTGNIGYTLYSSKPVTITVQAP
Protocol: as §2

FcgRIIa R [8] = biological target: T5, FcgRIIa R (human, UniProt P12318 34-217); assay: as above
T5 construct: extracellular domain; also called FcγRIIa R; FcγRIIa type R; not shown: His tag attached to the C terminus
T5 sequence (looked up): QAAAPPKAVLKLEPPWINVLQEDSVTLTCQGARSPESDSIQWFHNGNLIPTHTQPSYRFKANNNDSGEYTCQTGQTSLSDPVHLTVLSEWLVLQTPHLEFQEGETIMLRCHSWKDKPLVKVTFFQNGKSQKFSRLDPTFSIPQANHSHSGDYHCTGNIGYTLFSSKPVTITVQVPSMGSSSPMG
Protocol: as §2

FcgRIIa H [9] = biological target: T6, FcgRIIa H (human, UniProt P12318 34-217); assay: as above
T6 construct: extracellular domain; also called FcγRIIa H; FcγRIIa type H; not shown: His tag attached to the C terminus
T6 sequence (looked up): T5 sequence (looked up) with R134H
Protocol: as §2

FcgRIa [10] = biological target: T7, FcgRIa (human, UniProt P12314 16-292); assay: as above
T7 construct: extracellular domain; Expressed in FreeStyle293 cells and purified; used as analyte in Biacore; also called FcγRIa; FcγRI; not shown: His tag attached to the C terminus
Protocol: as §2

FcgRIIIa F [11] = biological target: T2, FcgRIIIa F; assay: as above; remark: listed apart in the source
FcgRIIIa V [12] = biological target: T3, FcgRIIIa V; assay: as above; remark: listed apart in the source
FcgRIIb [13] = biological target: T4, FcgRIIb; assay: as above; remark: listed apart in the source
FcgRIIa R [14] = biological target: T5, FcgRIIa R; assay: as above; remark: listed apart in the source
FcgRIIa H [15] = biological target: T6, FcgRIIa H; assay: as above; remark: listed apart in the source
FcgRIa [16] = biological target: T7, FcgRIa; assay: as above; remark: listed apart in the source

T1 sequence (P08637 17-208): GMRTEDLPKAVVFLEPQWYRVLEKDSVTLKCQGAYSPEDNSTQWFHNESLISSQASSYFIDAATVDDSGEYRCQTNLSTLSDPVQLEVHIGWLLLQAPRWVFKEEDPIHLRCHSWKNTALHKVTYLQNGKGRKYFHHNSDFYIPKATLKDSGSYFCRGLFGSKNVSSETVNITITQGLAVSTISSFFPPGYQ
T2 sequence (P08637 17-208): as above
T3 sequence (P08637 17-208 F176V limits assumed): as the sequence (P08637 17-208) above, with F160V counted along it
T7 sequence (P12314 16-292): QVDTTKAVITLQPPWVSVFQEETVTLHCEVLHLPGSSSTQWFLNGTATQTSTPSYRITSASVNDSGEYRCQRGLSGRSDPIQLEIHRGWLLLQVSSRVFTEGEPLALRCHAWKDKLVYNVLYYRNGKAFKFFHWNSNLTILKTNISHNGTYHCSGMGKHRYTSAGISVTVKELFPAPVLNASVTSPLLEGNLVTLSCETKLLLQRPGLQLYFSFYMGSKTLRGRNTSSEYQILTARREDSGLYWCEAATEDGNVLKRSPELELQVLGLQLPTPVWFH

KD ratio 1 (KD of GpH7-G1d/GpL16-k0 divided by KD of the antibody) [1]: 0.75 fold
KD ratio 2 (KD of GpH7-A5/GpH7-B3/GpL16-k0 divided by KD of the antibody) [1]: 1 fold
Kd [2]: 1600 nM
FcγR BINDING ACTIVITY (relative FcγRIIIa binding) [3]: 100 relative, GpH7-A5/GpH7-B3/GpL16-k0 = 100
FcγRIIIa BINDING ACTIVITY (relative) [4]: 100 relative, GpH7-A5/GpH7-B3/GpL16-k0 = 100
B1: GpH7-A5/GpH7-B3/GpL16-k0 (antibody, human IgG1, kappa)
heavy 1: not shown
heavy 2: not shown
light: DIVMTQSPLSLPVTPGEPASISCQASESLVHSNRNTYLHWYLQKPGQSPQLLIYKVSNRFSGVPDRFSGSGSGTDFTLKISRVEAEDVGVYYCSQNTHVPPTFGQGTKVEIERTVAAPSVFIFPPSDEQLKSGTASVVCLLNNFYPREAKVQWKVDNALQSGNSQESVTEQDSKDSTYSLSSTLTLSKADYEKHKVYACEVTHQGLSSPVTKSFNRGEC
notes: also called HeCon Ab; control heterodimerized antibody

FcγRIIIa BINDING ACTIVITY (relative) [4]: 150 relative, GpH7-A5/GpH7-B3/GpL16-k0 = 100
B2: GpH7-TA8/GpH7-B3/GpL16-k0 (antibody, human IgG1, kappa)
heavy 1: QVQLVQSGAEVKKPGASVTVSCKASGYTFTDYEMHWIRQPPGEGLEWIGAIDPKTGDTAYSESFQDRVTLTADKSTSTAYMELSSLTSEDTAVYYCTRFYSYTYWGQGTLVTVSSASTKGPSVFPLAPSSKSTSGGTAALGCLVKDYFPEPVTVSWNSGALTSGVHTFPAVLQSSGLYSLSSVVTVPSSSLGTQTYICNVNHKPSNTKVDKKVEPKSCDKTHTCPPCPAPEYLWGPSVFLFPPKPKDTLMISRTPEVTCVVVDVSHEDPEVKFNWYVDGVEVHNAKTKPREEQYNATYRVVSVLTVLHQDWLNGKEYKCKVSNKALRAPIEKTISKAKGQPREPQVYTLPPSRKELTKNQVSLTCLVKGFYPSDIAVEWESNGQPENNYKTTPPVLDSDGSFFLYSKLTVDKSRWQQGNVFSCSVMHEALHNRYTQKSLSLSP
heavy 2: not shown
light: B1 light
notes: Heterodimerized anti-glypican-3 IgG1 variant

FcγR BINDING ACTIVITY (relative FcγRIIIa binding) [3]: 225 relative, GpH7-A5/GpH7-B3/GpL16-k0 = 100
B3: GpH7-A5/GpH7-TA45/GpL16-k0 (antibody, human IgG1, kappa)
heavy 1: not shown
heavy 2: B2 heavy 1 with R327P, K354D, R433H, K437E
light: B1 light
notes: as for B2

FcγRIIIa BINDING ACTIVITY (relative) [4]: 11 relative, GpH7-A5/GpH7-B3/GpL16-k0 = 100
B4: GpH7-TA7/GpH7-B12/GpL16-k0 (antibody, human IgG1, kappa)
heavy 1: B2 heavy 1 with R327P
heavy 2: not shown
light: B1 light
notes: as for B2

KD ratio 1 (KD of GpH7-G1d/GpL16-k0 divided by KD of the antibody) [1]: 0.37 fold
KD ratio 2 (KD of GpH7-A5/GpH7-B3/GpL16-k0 divided by KD of the antibody) [1]: 0.49 fold
Kd [2]: 3300 nM
FcγR BINDING ACTIVITY (relative FcγRIIIa binding) [3]: 48 relative, GpH7-A5/GpH7-B3/GpL16-k0 = 100
B5: GpH7-TA7/GpH7-TA45/GpL16-k0 (antibody, human IgG1, kappa)
heavy 1: B2 heavy 1 with R327P
heavy 2: B2 heavy 1 with R327P, K354D, R433H, K437E
light: B1 light
notes: the chains differ only in D356K/H435R against K439E

KD ratio 1 (KD of GpH7-G1d/GpL16-k0 divided by KD of the antibody) [1]: 3.8 fold
KD ratio 2 (KD of GpH7-A5/GpH7-B3/GpL16-k0 divided by KD of the antibody) [1]: 5.1 fold
Kd [2]: 320 nM
FcγR BINDING ACTIVITY (relative FcγRIIIa binding) [3]: 210 relative, GpH7-A5/GpH7-B3/GpL16-k0 = 100
FcγRIIIa BINDING ACTIVITY (relative) [4]: 210 relative, GpH7-A5/GpH7-B3/GpL16-k0 = 100
B6: GpH7-TA7/GpH7-B3/GpL16-k0 (antibody, human IgG1, kappa)
heavy 1: B2 heavy 1 with R327P
heavy 2: not shown
light: B1 light
notes: as for B2

Kd (FcgRIIIa F [5]): 1400 nM
Kd (FcgRIIIa V [6]): 310 nM
Kd (FcgRIIb [7]): 6100 nM
Kd (FcgRIIa R [8]): 880 nM
Kd (FcgRIIa H [9]): 660 nM
Kd (FcgRIa [10]): 0.23 nM
Kd (FcgRIIIa F [11]): 1400 nM
Kd (FcgRIIIa V [12]): 310 nM
Kd (FcgRIIb [13]): 6000 nM
Kd (FcgRIIa R [14]): 880 nM
Kd (FcgRIIa H [15]): 660 nM
Kd (FcgRIa [16]): 0.23 nM
B7: H240-G1d/L73-k0 (antibody, human IgG1, kappa)
heavy: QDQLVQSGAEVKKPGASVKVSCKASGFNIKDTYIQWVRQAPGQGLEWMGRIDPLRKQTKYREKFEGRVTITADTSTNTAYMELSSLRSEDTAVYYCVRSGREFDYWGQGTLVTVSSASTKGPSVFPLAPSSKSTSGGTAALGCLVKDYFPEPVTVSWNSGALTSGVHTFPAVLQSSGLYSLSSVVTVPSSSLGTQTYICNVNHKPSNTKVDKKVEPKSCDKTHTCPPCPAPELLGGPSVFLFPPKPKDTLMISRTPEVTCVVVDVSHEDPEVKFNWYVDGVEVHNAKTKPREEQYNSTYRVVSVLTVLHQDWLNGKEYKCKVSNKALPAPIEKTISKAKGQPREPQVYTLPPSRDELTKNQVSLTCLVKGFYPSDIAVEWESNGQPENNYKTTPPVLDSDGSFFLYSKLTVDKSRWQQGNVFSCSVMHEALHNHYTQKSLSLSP
light: DIQMTQSPSSLSASVGDRVTITCRASQDIHKYIAWYQQKPGQAPRLLIQYTSTLQPGVPSRFSGSGSGTDYTFTISSLQPEDIATYYCLQYEQLRTFGGGTKVEIKRTVAAPSVFIFPPSDEQLKSGTASVVCLLNNFYPREAKVQWKVDNALQSGNSQESVTEQDSKDSTYSLSSTLTLSKADYEKHKVYACEVTHQGLSSPVTKSFNRGEC
notes: Anti-EREG native IgG1 (G1d constant region lacks the C-terminal Gly and Lys); also called native IgG1

Kd (FcgRIIIa F [5]): 1600 nM
Kd (FcgRIIIa V [6]): 330 nM
Kd (FcgRIIb [7]): 4300 nM
Kd (FcgRIIa R [8]): 940 nM
Kd (FcgRIIa H [9]): 910 nM
Kd (FcgRIa [10]): 0.61 nM
B8: H240-A5E/H240-B3E/L73-k0 (antibody, human IgG1, kappa)
heavy 1: not shown
heavy 2: not shown
light: B7 light
notes: Anti-EREG IgG1 control: H240-G1dE with D356K/H435R in one H chain and K439E in the other, no FcgR-related alterations
